The source of these data is patent US20240425589A1, “CYTOTOXICITY-INDUCING THERAPEUTIC AGENT FOR USE IN TREATMENT OF CANCER” (CHUGAI SEIYAKU KABUSHIKI KAISHA, priority 2021, published 2024).

Series [1] has as its system CLDN6-LLC1. The experiment in a line: CLDN6-LLC1 syngenic model, CS4135 single agent. The class given is in vivo, hCD137 KI/hCD3Tg mice. The procedure: In this test, lung cancer cell line LLC1 forced to express claudin 6 (CLDN6) (CLDN6-LLC1) and hCD137 KI/hCD3Tg mice (described in the above-mentioned Example 7) were used. The CLDN6-LLC1 cell line was transplanted subcutaneously to the right flank of the mice, and the mice were divided into groups 7 days after transplantation. Individuals whose tumor volume reached 262 to 353 mm^3 were divided into groups. The vehicle and CS4135 were administered into the mouse tail vein 8 days after transplantation. PBS containing 0.05% Tween-20 was used as the vehicle.
Tumor volume was measured 7, 10, and 14 days after transplantation, and the average tumor volume was indicated for each group. The tumor volume was calculated by the following equation: […]
(§1) Tumor Growth Inhibition (TGI) was calculated by the following equation: […]
The resected tumor tissue was weighed, and then a lymphocyte fraction was isolated. The lymphocyte fraction obtained by tissue disruption using a Tumor Dissociation Kit, mouse (Miltenyi Biotec) and then by use of a cell strainer was used. The obtained tumor-derived lymphocyte fraction was subjected to flow cytometry (FCM) analysis.
FCM was used to analyze the number of tumor-derived T cells. The number of CD8-positive T cells per tumor weight was calculated using the tumor weight value and the number of CD8-positive T cells according to FCM. […]

In series [2] the test system is CLDN6-LLC1. The experiment in a line: CLDN6-LLC1 syngenic model, combination with anti-mouse PD-L1 antibody. The format is in vivo, hCD137 KI/hCD3Tg mice. Particulars: 17 days after transplantation; CS4135 0.2 mg/kg iv day 6, anti-mouse PD-L1 antibody 10 mg/kg ip days 6, 8, 10, 12, 14, 17. Here is the method: In this test, lung cancer cell line LLC1 forced to express claudin 6 (CLDN6) (CLDN6-LLC1) and hCD137 KI/hCD3Tg mice (described in the aforementioned Example 7) were used. The CLDN6-LLC1 cell line was transplanted subcutaneously to the right flank of the mice, and the mice were divided into groups 6 days after transplantation. Individuals whose tumor volume reached 104 to 140 mm^3 were divided into groups. The vehicle and the CS4135 antibody were administered into the mouse tail vein 6 days after transplantation. PBS containing 0.05% Tween-20 was used as the vehicle. The vehicle and anti-mouse PD-L1 antibody (BioX cell) were administered intraperitoneally to the mice 6, 8, 10, 12, 14, and 17 days after transplantation.
Tumor volume was measured 6, 10, 12, 14, and 17 days after transplantation, and the average tumor volume was indicated for each group. The tumor volume was calculated by the following equation: […]
as §1

Series [3] in a line: Single dose toxicology study. The format is in vivo, cynomolgus monkey. Here is the method:
Potential toxicity of PPU4135 antibody (anti-CLDN6/Dual-Fab tri-specific antibody) was evaluated in toxicity study using cynomolgus monkeys compared with CS3348 antibody (anti-CLDN6/CD3 bispecific antibody). Because both PPU4135 and CS3348 antibodies cross-reacted with their antigens of cynomolgus monkey, cynomolgus monkey was selected as the animal species for evaluations in the in vivo toxicology studies. Since toxicological findings seemed to be more sensitive in male than female animals in the toxicity study with CS3348 (FIG. 14), 2 males were used for evaluation of the PPU4135-mediated toxicity. In these studies, dose levels were set at 100 (for CS3348) or 90 (for PPU4135) micro g/kg, which were approximately 2.57-fold efficacious concentration producing 80% of the maximal response.

For the next series, the target named is T1, recombinant human CD137 (Homo sapiens, UniProt Q07011).
T1 construct: made in house; host or cells: FreeStyle293F
T1 sequence (Q07011 with tags, fused parts or gaps): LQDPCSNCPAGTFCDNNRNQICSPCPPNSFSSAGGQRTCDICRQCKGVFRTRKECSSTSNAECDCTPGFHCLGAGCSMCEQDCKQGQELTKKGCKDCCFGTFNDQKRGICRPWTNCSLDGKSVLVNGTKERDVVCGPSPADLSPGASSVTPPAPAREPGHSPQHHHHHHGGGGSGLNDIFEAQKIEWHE
The experiment in a line: Biacore 8K SPR affinity to human CD137. The class given is binding. Particulars: human CD137, 37 degree C, pH 7.4. The procedure:
The binding affinity of the anti-CLDN6/Dual-Fab tri-specific antibody against recombinant human and cyno CD3eg (gamma and epsilon subunits of CD3) at pH 7.4 was determined at 25 degree C. using Biacore 8K instrument (GE Healthcare). The binding affinity of the anti-CLDN6/Dual-Fab tri-specific antibody against recombinant human and cyno CD137 at pH 7.4 was determined at 37 degree C. using Biacore 8K instrument (GE Healthcare). Anti-human Fc (GE Healthcare) antibody was immobilized onto all flow cells of a CM4 sensor chip using amine coupling kit (GE Healthcare). Tested antibody and analytes were prepared in ACES pH 7.4 containing 20 mM ACES, 150 mM NaCl, 0.05% Tween 20, 0.005% NaN3. Anti-CLDN6/Dual-Fab tri-specific antibody was captured onto the sensor surface by anti-human Fc. Antibody capture levels were aimed at 300 resonance unit (RU). Recombinant CD3eg and CD137 were injected at both 500 and 2000 nM, followed by dissociation. Sensor surface was regenerated each cycle with 3M MgCl2. […] Binding affinities were determined by processing and fitting the data to 1:1 binding model using Biacore Insight Evaluation software (GE Healthcare).
On the technique in general: SPR reads the build-up and loss of mass on a sensor chip optically.

The target of the next series is T2, human CLDN6 VLP (Homo sapiens, UniProt P56747).
T2 sequence (P56747 1-220): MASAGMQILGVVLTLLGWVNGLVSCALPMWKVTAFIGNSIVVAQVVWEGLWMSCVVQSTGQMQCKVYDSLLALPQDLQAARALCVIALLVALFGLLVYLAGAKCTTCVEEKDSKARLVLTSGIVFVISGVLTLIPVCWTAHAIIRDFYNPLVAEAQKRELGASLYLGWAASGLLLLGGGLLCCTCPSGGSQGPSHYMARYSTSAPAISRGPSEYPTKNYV
The experiment in a line: Biacore T200 SPR affinity to human CLDN6 VLP. The format is binding. As to conditions: human CLDN6, 25 degree C, pH 7.4. The procedure:
The binding affinity of the anti-CLDN6/Dual-Fab tri-specific antibody against human and cynomolgus (cyno) CLDN6 VLP (virus-like particle) at pH 7.4 was determined at 25 degree C. using Biacore T200 instrument (GE Healthcare). Anti-human CD81 (BD Pharmingen) antibody was immobilized onto all flow cells of a C1 sensor chip using amine coupling kit (GE Healthcare). Human and cyno CLDN6 VLP were captured onto the sensor surface by the anti-human CD81 antibody. Each VLP was 5-fold dilution by buffer (20 mM NaPhosphate, 150 mM NaCl, 0.1 mg/mL BSA, 0.005% NaN3, pH 7.4). Tested antibody was prepared in buffer (20 mM NaPhosphate, 150 mM NaCl, 0.1 mg/mL BSA, 0.005% NaN3, pH 7.4). Anti-CLDN6/Dual-Fab tri-specific antibody was injected at 50 and 200 nM, followed by dissociation. Sensor surface was regenerated each cycle with 0.1% SDS and 100 mM H3PO4. […] Binding affinities were determined by processing and fitting the data to 1:1 binding model using Biacore T200 Evaluation software, version 2.0 (GE Healthcare).

B1: PPU4135: anti-CLDN6/Dual-Fab tri-specific antibody, chains SEQ ID NOs 42, 51, 56, 69; CS4135 same antibody (protein)
chain 1: QVQLVESGGGVVQPGGSLRLSCAASGFTFSSYTMSWVRQAPGQGLEWMGTISSGGGRTYYPDSVKGRFTISRDNSKNTLYLQMNSLRDEDTAVYYCARGDYRYDGFAYWGEGTLVTVSSASTKGPSVFPLAPSSKSTSGGTAALGCLVEDYFPEPVTVSWNSGALTSGVHTFPAVLESSGLYSLSSVVTVPSSSLGTQTYICNVNHKPSNTKVDKRVEPKSCDKTHTCPPCPAPEAAGGPSVFLFPPKPKDTLMISRTPEVTCVVVDVSHEDPEVKFNWYVDGVEVHNAKTKPREEQYASTYRVVSVLTVLHQDWLNGKEYKCKVSNKALPAPIEKTISKAKGQPREPQVYTLPPSREEMTKNQVSLTCLVKGFYPSDIAVEWESNGQPENNYKTTPPVLDSDGSFFLYSKLTVDKSRWQQGNVFSCSVMHEALHNHYTQESLSLSP
chain 2: DIQMTQSPSSLSASVGDRVTITCRASYNIDSYLAWYQQKPGKAPELLIYYSTLLVDGVPDRFSGSRSGTDFTLTISSLQPEDFATYYCQHYYSIPYTFGQGTKVEIERTVAAPSVFIFPPSDEQLKSGTAKVVCLLNNFYPREAKVQWKVDNALQSGNSKESVTEQDSKDSTYSLSSTLTLSKADYEKHKVYACEVTHQGLSSPVTKSFNRGEC
chain 3: QVQLVESGGGLVQPGRSLRLSCAASGFKFSNVWFHWVRQAPGKGLEWVAQIKDYYNAYAAYYAPSVKGRFTISRDDSKNSIYLQMNSLKTEDTAVYYCHYVHYASASTLLPAEGVDAWGQGTTVTVSSASTKGPSVFPLAPSSKSTSGGTAALGCLVKDYFPEPVTVSWNSGALTSGVHTFPAVLKSSGLYSLSSVVTVPSSSLGTQTYICNVNHKPSNTKVDKRVEPKSCDKTHTCPPCPAPEAAGGPSVFLFPPKPKDTLMISRTPEVTCVVVDVSHEDPEVKFNWYVDGVEVHNAKTKPREEQYASTYRVVSVLTVLHQDWLNGKEYKCKVSNKALPAPIEKTISKAKGQPREPQVYTLPPSRKEMTKNQVSLTCLVKGFYPSDIAVEWESNGQPENNYKTTPPVLDSDGSFFLYSKLTVDKSRWQQGNVFSCSVMHEALHNHYTQKSLSLSP
chain 4: DIVMTQSPLSLPVTPGEPASISCQPSQEVVHMNRNTYLHWYQQKPGQAPRLLIYKVSNRFPGVPDRFSGSGSGTDFTLKISRVEAEDVGVYYCAQGTSHPFTFGQGTKLEIKRTVAAPSVFIFPPSDEQLKSGTAEVVCLLNNFYPREAKVQWKVDNALQSGNSEESVTEQDSKDSTYSLSSTLTLSKADYEKHKVYACEVTHQGLSSPVTKSFNRGEC
As for B1, the “Tumor growth inhibition: TGI” value is on record as 71% with CLDN6-LLC1 [1] (14 days after transplantation, 0.25 mg/kg iv day 8) and 71% in the series on CLDN6-LLC1 [2]. Besides, the “number of CD8-positive T cells per tumor weight” value with CLDN6-LLC1 [1] (14 days after tumor transplantation (Day 6 after administration), 0.25 mg/kg) is recorded as “significant increase”. Also, in series [3] (PPU4135 90 micro g/kg compared with CS3348 100 micro g/kg), the “hepatobiliary damage parameters and inflammatory marker elevations” value is recorded as “dramatically mitigated”. In addition, in series [3] (male animals, after single IV administration), the “AST, ALT, GLDH, ALP, TBIL, GGT, TBA and CRP” value is reported as “Increased”. The plasma exposure levels result in series [3] (male animals, until Day 8, PPU4135 90 vs CS3348 100 micro g/kg single IV) was “comparable”. Besides, the ka with recombinant human CD137 stood at 12600 M⁻¹ s⁻¹; in the series with human CLDN6 VLP, 217000 M⁻¹ s⁻¹. Also, the kd is 0.000591 s⁻¹ in the series with recombinant human CD137 and 0.000794 s⁻¹ with human CLDN6 VLP.
